The RNAGym collection of RNA variant scans (doi:10.7554/elife.80360)

B1: CPEB3 Ribozyme (parent)
chain: GGGGGCCACAGCAGAAGCGUUCACGUCGCGGCCCCUGUCAGAUUCUGGUGAAUCUGCGAAUUCUGCUGU

Variants of: B1
Assay: self-cleavage, relative activity (ratio to wild type); higher = more cleavage; co-transcriptional

Variant	self-cleavage
GGGGGCCACAGCAGAAGCGUUCACGUCCCGGCCCCUGUCAGAUUGUGGUGAAUCUGCGAAUUCUGCUGU [G28C C45G]	0.208
GGGGGCCACAGCAGAAGCGUUCACGUCCAGGCCCCUGUCAGAUUCUGGUGAAUCUGCGAAUUCUGCUGU [G28C C29A]	0.144
GGGGGCCACAGCAGAAGCGUUCACGUCCGGGCCCCUGUCAGAUUCUGGUGAAUCUGCGAAUUCUGCUGU [G28C C29G]	0.153
GGGGGCCACAGCAGAAGCGUUCACGUCCUGGCCCCUGUCAGAUUCUGGUGAAUCUGCGAAUUCUGCUGU [G28C C29U]	0.137
GGGGGCCACAGCAGAAGCGUUCACGUCCCGGCCCCUGUCAGAUUCUGGUGAAUCUGCGAACUCUGCUGU [G28C U61C]	0.134
GGGGGCCACAGCAGAAGCGUUCACGUCCCGGCCCCUGUCAGAUUCUGGUGAAUCUGCGAAUUUUGCUGU [G28C C63U]	0.192
GGGGGCCACAGCAGAAGCGUUCACGUCCCGGCCCCUGUCAGAUUCUGGUGAAUCUGGGAAUUCUGCUGU [G28C C57G]	0.191
GGGGGCCACAGCAGAAGCGUUCACGUCCCGGCCCCUGUCAGAUUCUGGUGAAUCUGAGAAUUCUGCUGU [G28C C57A]	0.207
GGGGGCCACAGCAGAAGCGUUCACGUCCCGGCCCCUGUCAGAUUCUGGUGAAUCUGUGAAUUCUGCUGU [G28C C57U]	0.23
GGGGGCCACAGCAGAAGCGUUCACGUCCCGGCCCCUGUGAGAUUCUGGUGAAUCUGCGAAUUCUGCUGU [G28C C39G]	0.198
GGGGGCCACAGCAGAAGCGUUCACGUCCCGGCCCAUGUCAGAUUCUGGUGAAUCUGCGAAUUCUGCUGU [G28C C35A]	0.176
GGGGGCCACAGCAGAAGCGUUCACGUCCCGGCCCUUGUCAGAUUCUGGUGAAUCUGCGAAUUCUGCUGU [G28C C35U]	0.178
GGGGGCCACAGCAGAAGCGUUCACGUCCCGGCCCCUGUCAGAUUCUGGUGAAUCUGCGAAUUCUCCUGU [G28C G65C]	0.19
GGGGGCCACAGCAGAAGCGUUCACGUCCCGGCCCCUGUCAGAUUCUGGUGAAUCUGCGAAUUCUACUGU [G28C G65A]	0.161
GGGGGCCACAGCAGAAGCGUUCACGUCCCGGCCCCUGUCAGAUUCUGGUGAAUCUGCGAAUUCGGCUGU [G28C U64G]	0.116
GGGGGCCACAGCAGAAGCGUUCACGUCCCGGCCCCUGUCAGAUUCUGGUGAAUCUGCGAAUUCAGCUGU [G28C U64A]	0.222
GGGGGCCACAGCAGAAGCGUUCACGUCCCGGCCCCUGCCAGAUUCUGGUGAAUCUGCGAAUUCUGCUGU [G28C U38C]	0.199
GGGGGCCACAGCAGAAGCGUUCACGUCCCGGCACCUGUCAGAUUCUGGUGAAUCUGCGAAUUCUGCUGU [G28C C33A]	0.115
GGGGGCCACAGCAGAAGCGUUCACGUCCCGGCUCCUGUCAGAUUCUGGUGAAUCUGCGAAUUCUGCUGU [G28C C33U]	0.165
GGGGGCCACAGCAGAAGCGUUCACGUCCCGGCCCCUGUCAGAUUCUGGUGAACCUGCGAAUUCUGCUGU [G28C U53C]	0.145
GGGGGCCACAGCAGAAGCGUUCACGUCCCGGCCCCUGUCAGAUUCUGGUGAAGCUGCGAAUUCUGCUGU [G28C U53G]	0.196
GGGGGCCACAGCAGAAGCGUUCACGUCCCGGCCCCUGUCAGAUUCUGGUGAAACUGCGAAUUCUGCUGU [G28C U53A]	0.156
GGGGGCCACAGCAGAAGCGUUCACGUCCCGGCCCCUGUCAGAUUCUGGCGAAUCUGCGAAUUCUGCUGU [G28C U49C]	0.145
GGGGGCCACAGCAGAAGCGUUCACGUCCCGGCCCCUGUCAGAUUCUGUUGAAUCUGCGAAUUCUGCUGU [G28C G48U]	0.202
GGGGGCCACAGCAGAAGCGUUCACGUCCCGGCCCCUGUCAGAUUCUGAUGAAUCUGCGAAUUCUGCUGU [G28C G48A]	0.195
GGGGGCCACAGCAGAAGCGUUCACGUCCCGGCCCCUGUCAGAUUCUGGUGAAUCUGCGAAUUCUGAUGU [G28C C66A]	0.163

Variant	self-cleavage
GGGGGCCACAGCAGAAGCGUUCACGUCCCGGCCCCUGUCAGAUUCUGGUGAAUCUGCGAAUUCUGGUGU [G28C C66G]	0.141
GGGGGCCACAGCAGAAGCGUUCACGUCCCGGCCCCUGUCAGAUUCUGGUGAAUCUGCGAAUUCUGUUGU [G28C C66U]	0.211
GGGGGCCACAGCAGAAGCGUUCACGUCUCGGCCCCUGUCAGUUUCUGGUGAAUCUGCGAAUUCUGCUGU [G28U A42U]	0.149
GGGGGCCACAGCAGAAGCGUUCACGUCUCGGCCCCUGUCAGGUUCUGGUGAAUCUGCGAAUUCUGCUGU [G28U A42G]	0.112
GGGGGCCACAGCAGAAGCGUUCACGUCCCGGCCCCUGUCAGAUUCUGGUGAAUCUGCGAAUUCUGCCGU [G28C U67C]	0.168
GGGGGCCACAGCAGAAGCGUUCACGUCCCGGCCCCUGUCAGAUUCUGGUGAAUCUGCGAAUUCUGCGGU [G28C U67G]	0.295
GGGGGCCACAGCAGAAGCGUUCACGUCCCGGCCCCUGUCAGAUUCUGGUGAAUCCGCGAAUUCUGCUGU [G28C U55C]	0.162
GGGGGCCACAGCAGAAGCGUUCACGUCCCGGCCCCUGUCAGAUUCUGGUGAAUCGGCGAAUUCUGCUGU [G28C U55G]	0.117
GGGGGCCACAGCAGAAGCGUUCACGUCCCCGCCCCUGUCAGAUUCUGGUGAAUCUGCGAAUUCUGCUGU [G28C G30C]	0.143
GGGGGCCACAGCAGAAGCGUUCACGUCCCAGCCCCUGUCAGAUUCUGGUGAAUCUGCGAAUUCUGCUGU [G28C G30A]	0.22
GGGGGCCACAGCAGAAGCGUUCACGUCCCGGCCCCUGUCAGAUUCUGGUGAAUGUGCGAAUUCUGCUGU [G28C C54G]	0.155
GGGGGCCACAGCAGAAGCGUUCACGUCCCGGCCCCUGUCAGAUUCUGGUGAAUUUGCGAAUUCUGCUGU [G28C C54U]	0.218
GGGGGCCACAGCAGAAGCGUUCACGUCUCGGCCCCUGUCAGAUUCUGGUGAUUCUGCGAAUUCUGCUGU [G28U A52U]	0.198
GGGGGCCACAGCAGAAGCGUUCACGUCUCGGCCCCUGUCAGAUUCUGGUGACUCUGCGAAUUCUGCUGU [G28U A52C]	0.132
GGGGGCCACAGCAGAAGCGUUCACGUCCCGGCCCCUGUCAGAUUCUGGUGAAUCUGCGAAUUCUGCUAU [G28C G68A]	0.164
GGGGGCCACAGCAGAAGCGUUCACGUCCCGGCCCCUGUCAGAUUCUGGUGAAUCUGCGAAUUCUGCUUU [G28C G68U]	0.221
GGGGGCCACAGCAGAAGCGUUCACGUCCCGGCCCCUGUCAGAUUCUGGUGAAUCUGCGAUUUCUGCUGU [G28C A60U]	0.19
GGGGGCCACAGCAGAAGCGUUCACGUCCCGGCCCCUGUCAGAUUCUGGUGAAUCUGCGAGUUCUGCUGU [G28C A60G]	0.168
GGGGGCCACAGCAGAAGCGUUCACGUCCCGGCCCCUGUCAGAUUCUGGUGAAUCUGCGAAUUCUGCUGA [G28C U69A]	0.18
GGGGGCCACAGCAGAAGCGUUCACGUCCCGGCCCCUGUCAGAUACUGGUGAAUCUGCGAAUUCUGCUGU [G28C U44A]	0.157
GGGGGCCACAGCAGAAGCGUUCACGUCCCGGCCCCUGUCAGAUCCUGGUGAAUCUGCGAAUUCUGCUGU [G28C U44C]	0.223
GGGGGCCACAGCAGAAGCGUUCACGUCCCGGCCCCCGUCAGAUUCUGGUGAAUCUGCGAAUUCUGCUGU [G28C U36C]	0.147
GGGGGCCACAGCAGAAGCGUUCACGUCCCGGCCCCGGUCAGAUUCUGGUGAAUCUGCGAAUUCUGCUGU [G28C U36G]	0.189
GGGGGCCACAGCAGAAGCGUUCACGUCCCGGCCCCAGUCAGAUUCUGGUGAAUCUGCGAAUUCUGCUGU [G28C U36A]	0.162
GGGGGCCACAGCAGAAGCGUUCACGUCCCGGCCCCUGUCAGAUUCUGGUGAAUCUGCCAAUUCUGCUGU [G28C G58C]	0.158
GGGGGCCACAGCAGAAGCGUUCACGUCCCGGCCCCUGUCAGAUUCUGGUGAAUCUUCGAAUUCUGCUGU [G28C G56U]	0.17

Variant	self-cleavage
GGGGGCCACAGCAGAAGCGUUCACGUCCCGGCCCCUGUCAUAUUCUGGUGAAUCUGCGAAUUCUGCUGU [G28C G41U]	0.152
GGGGGCCACAGCAGAAGCGUUCACGUCCCGGCCCCUGUCACAUUCUGGUGAAUCUGCGAAUUCUGCUGU [G28C G41C]	0.178
GGGGGCCACAGCAGAAGCGUUCACGUCCCGGCCCCUGUCAAAUUCUGGUGAAUCUGCGAAUUCUGCUGU [G28C G41A]	0.201
GGGGGCCACAGCAGAAGCGUUCACGUCCCGGCCCCUGUCAGAUUCUGGUGAAUCUGCGAAUCCUGCUGU [G28C U62C]	0.136
GGGGGCCACAGCAGAAGCGUUCACGUCCCGGCCCCUGUCAGAUUCUGGUGAAUCUGCGAAUACUGCUGU [G28C U62A]	0.194
GGGGGCCACAGCAGAAGCGUUCACGUCCCGGGCCCUGUCAGAUUCUGGUGAAUCUGCGAAUUCUGCUGU [G28C C32G]	0.168
GGGGGCCACAGCAGAAGCGUUCACGUCCCGGUCCCUGUCAGAUUCUGGUGAAUCUGCGAAUUCUGCUGU [G28C C32U]	0.23
GGGGGCCACAGCAGAAGCGUUCACGUCCCGGACCCUGUCAGAUUCUGGUGAAUCUGCGAAUUCUGCUGU [G28C C32A]	0.181
GGGGGCCACAGCAGAAGCGUUCACGUCUCGGCCCCUGUCGGAUUCUGGUGAAUCUGCGAAUUCUGCUGU [G28U A40G]	0.232
GGGGGCCACAGCAGAAGCGUUCACGUCUCGGCCCCUGUCCGAUUCUGGUGAAUCUGCGAAUUCUGCUGU [G28U A40C]	0.225
GGGGGCCACAGCAGAAGCGUUCACGUCCCGGCCCCUGUCAGAAUCUGGUGAAUCUGCGAAUUCUGCUGU [G28C U43A]	0.109
GGGGGCCACAGCAGAAGCGUUCACGUCCCGGCCCCUGUCAGACUCUGGUGAAUCUGCGAAUUCUGCUGU [G28C U43C]	0.141
GGGGGCCACAGCAGAAGCGUUCACGUCCCGGCCCCUGUCAGAGUCUGGUGAAUCUGCGAAUUCUGCUGU [G28C U43G]	0.255
GGGGGCCACAGCAGAAGCGUUCACGUCCCGGCCCCUAUCAGAUUCUGGUGAAUCUGCGAAUUCUGCUGU [G28C G37A]	0.117
GGGGGCCACAGCAGAAGCGUUCACGUCCCGGCCCCUCUCAGAUUCUGGUGAAUCUGCGAAUUCUGCUGU [G28C G37C]	0.186
GGGGGCCACAGCAGAAGCGUUCACGUCCCGGCCCCUUUCAGAUUCUGGUGAAUCUGCGAAUUCUGCUGU [G28C G37U]	0.129
GGGGGCCACAGCAGAAGCGUUCACGUCCCGUCCCCUGUCAGAUUCUGGUGAAUCUGCGAAUUCUGCUGU [G28C G31U]	0.21
GGGGGCCACAGCAGAAGCGUUCACGUCCCGACCCCUGUCAGAUUCUGGUGAAUCUGCGAAUUCUGCUGU [G28C G31A]	0.139
GGGGGCCACAGCAGAAGCGUUCACGUCCCGCCCCCUGUCAGAUUCUGGUGAAUCUGCGAAUUCUGCUGU [G28C G31C]	0.172
GGGGGCCACAGCAGAAGCGUUCACGUCUCGGCCCCUGUCAGAUUCUGGUGGAUCUGCGAAUUCUGCUGU [G28U A51G]	0.196
GGGGGCCACAGCAGAAGCGUUCACGUCUCGGCCCCUGUCAGAUUCUGGUGCAUCUGCGAAUUCUGCUGU [G28U A51C]	0.157
GGGGGCCACAGCAGAAGCGUUCACGUCCCGGCCCCUGUCAGAUUCUAGUGAAUCUGCGAAUUCUGCUGU [G28C G47A]	0.187
GGGGGCCACAGCAGAAGCGUUCACGUCCCGGCCCCUGUCAGAUUCUUGUGAAUCUGCGAAUUCUGCUGU [G28C G47U]	0.167
GGGGGCCACAGCAGAAGCGUUCACGUCCCGGCCCCUGUCAGAUUCUCGUGAAUCUGCGAAUUCUGCUGU [G28C G47C]	0.258
GGGGGCCACAGCAGAAGCGUUCACGUCCCGGCCUCUGUCAGAUUCUGGUGAAUCUGCGAAUUCUGCUGU [G28C C34U]	0.136
GGGGGCCACAGCAGAAGCGUUCACGUCCCGGCCGCUGUCAGAUUCUGGUGAAUCUGCGAAUUCUGCUGU [G28C C34G]	0.245
